Patent US20160068834A1 (published 2016)
Read-outs that look alike come from different tables or passages of the source. Bridges are numbered along the chain shown (N, C = ends). Where no end group is shown, it is not given here. [ ]: non-standard residue; d: D form. The star is where a group is joined. FITC = O=C1OC2(c3ccc(O)cc3Oc3cc(O)ccc32)c2ccc(NC(=S)*)cc21; S5 = C=CCCC[C@](C)(N)C(=O)O; Nle = CCCC[C@H](N)C(=O)O

Assays:
purified EED (Example 6) = purified EED (Example 6) (UniProt O75530 1-441); test: competitive fluorescence polarization; competition against FITC-EZH2(42-68)
Chain of purified EED (Example 6) (O75530 whole entry): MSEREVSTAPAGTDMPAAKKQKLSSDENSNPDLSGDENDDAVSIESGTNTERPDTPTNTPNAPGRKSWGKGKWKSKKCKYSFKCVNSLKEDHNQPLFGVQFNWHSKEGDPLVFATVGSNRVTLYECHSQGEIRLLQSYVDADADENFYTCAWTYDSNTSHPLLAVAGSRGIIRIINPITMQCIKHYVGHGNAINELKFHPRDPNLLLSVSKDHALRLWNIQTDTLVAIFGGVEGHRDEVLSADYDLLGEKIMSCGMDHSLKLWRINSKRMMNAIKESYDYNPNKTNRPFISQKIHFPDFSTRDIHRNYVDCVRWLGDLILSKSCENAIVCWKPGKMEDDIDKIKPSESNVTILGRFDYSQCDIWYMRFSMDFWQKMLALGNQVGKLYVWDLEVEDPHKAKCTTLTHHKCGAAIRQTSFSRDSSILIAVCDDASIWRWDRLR

[1] = molecular target: T1, C-terminal His-tagged EED (His-EED) (UniProt O75530 1-441); test: fluorescence polarization
T1 sequence (O75530 whole entry): as above

[2] = molecular target: T1, C-terminal His-tagged EED (His-EED); test: fluorescence polarization; remark: listed apart in the source

Row | Kd [1] | Binder | also measured
1 |  | Ac-FSSNR[S5]KIL[S5]RT[S5]ILN[S5]EWKQRRIQPV (staple 6-10, 13-17) [acetyl-SAH-EZH2(42-68)AC] | Kd (purified EED (Example 6)): 650 nM
2 |  | Ac-FSSNR[S5]KIL[S5]RTQILNQEWKQRRIQPV (staple 6-10) [acetyl-SAH-EZH2] | Kd (purified EED (Example 6)): 1130 nM
3 | 333 nM | {FITC}-S[Nle]FSSNR[S5]KIL[S5]RTEILNQEWKQRRIQPV (staple 8-12) [FITC-SAH-EZH2A(40-68)] | 
4 |  | {FITC}-FSSNR[S5]KIL[S5]RTQILNQQWKQRRIQPV (staple 6-10) [FITC-SAH-EZH2A(42-68)E54Q/E59Q] | Kd [2]: > 10000 nM
5 |  | {FITC}-FSSNR[S5]KIL[S5]RTQILNQEWKQRRIQPV (staple 6-10) [FITC-SAH-EZH2A(42-68)E54Q] | Kd [2]: 320 nM
6 | 264 nM | {FITC}-S[Nle]FSSNRQKILERT[S5]ILN[S5]EWKQRRIQPV (staple 15-19) [FITC-SAH-EZH2B(40-68)] | 
7 | 468 nM | {FITC}-FSSNR[S5]KIL[S5]RTEILNQEWKQRRIQPV (staple 6-10) [FITC-SAH-EZH2A(42-68)] | 
8 | 528 nM | {FITC}-FSSNRQKILERT[S5]ILN[S5]EWKQRRIQPV (staple 13-17) [FITC-SAH-EZH2B(42-68)] | 
